# Data taken from article PMC2958309 (Journal of Molecular and Cellular Cardiology, 2010).
# Residue numbers refer to the chain shown, from its start. Read-outs that look alike come from different tables or passages of the source.
# T1: wild type sorcin (soluble resistance-related calcium binding protein) ( (human or Chinese hamster …, UniProt P05044 1-198))
# T1 sequence (looked up): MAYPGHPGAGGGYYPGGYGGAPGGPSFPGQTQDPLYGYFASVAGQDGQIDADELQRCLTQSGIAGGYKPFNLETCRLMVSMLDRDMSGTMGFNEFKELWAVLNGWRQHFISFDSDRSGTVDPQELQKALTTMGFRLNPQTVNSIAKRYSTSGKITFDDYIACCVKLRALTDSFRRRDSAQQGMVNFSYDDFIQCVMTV
# T2: sorcin W105G variant ( (human or Chinese hamster …, UniProt P05044 1-198, W105G))
# T2 sequence (looked up): T1 sequence (looked up) with W105G
# B1: NCX1 Calcium Binding Domain 2 (CBD2) (domain or fragment, Mus musculus, UniProt P70414 527-712, looked up)
# chain: TIFDDDHAGIFTFEEPVTHVSESIGIMEVKVLRTSGARGNVIIPYKTIEGTARGGGEDFEDTCGEPEFQNDEIVKTISVKVIDDEEYEKNKTFFIEIGEPRLVEMSEKKALLLNELGGFTLTGKEMYGQPIFRKVHARDHPIPSTVITISEEYDDKQPLTSKEEEERRIAEMGRPILGEHTKLEVI
# B2: NCX1 Calcium Binding Domain 1 (CBD1) (domain or fragment, Mus musculus, UniProt P70414 397-539, looked up)
# chain: MAENDPVSKIFFEQGTYQCLENCGTVALTIMRRGGDLSTTVFVDFRTEDGTANAASDYEFTEGTVIFKPGETQKEIRVGIIDDDIFEEDENFLVHLSNVRVSSDVSEDGILESNHASSIACLGSPSTATITIFDDDHAGIFTF
# Tests used:
# Assay in all cases: SPR
# [1] = molecular target: T1, wild type sorcin (soluble …)
# [2] = molecular target: T1, wild type sorcin (soluble …); remark: listed apart in the source
# [3] = molecular target: T1, wild type sorcin (soluble …); remark: listed apart in the source
# [4] = molecular target: T2, sorcin W105G variant
Binder,koff [1] [s⁻¹],Kd [2] [µM],koff [2] [s⁻¹],kon [2] [M⁻¹ s⁻¹],Kd [3] [µM],koff [3] [s⁻¹],kon [3] [M⁻¹ s⁻¹],binding result [4]
B1,0.6 ± 0.2,1,0.05 ± 0.03,50000,3,0.24 ± 0.1,80000,–
B2,0.9 ± 0.4,1.2,0.08 ± 0.1,70000,7,0.27 ± 0.1,40000,binds
